We go through four molecules from US20090197330A1 (BIOMEDICS, published 2009).

Assay [1] concerns the target T1, human CD20 antigen (human, UniProt P11836 1-297).
T1 construct: whole, on cells; also called CD20/CHO cells; CD20 on Raji cells
T1 sequence (looked up): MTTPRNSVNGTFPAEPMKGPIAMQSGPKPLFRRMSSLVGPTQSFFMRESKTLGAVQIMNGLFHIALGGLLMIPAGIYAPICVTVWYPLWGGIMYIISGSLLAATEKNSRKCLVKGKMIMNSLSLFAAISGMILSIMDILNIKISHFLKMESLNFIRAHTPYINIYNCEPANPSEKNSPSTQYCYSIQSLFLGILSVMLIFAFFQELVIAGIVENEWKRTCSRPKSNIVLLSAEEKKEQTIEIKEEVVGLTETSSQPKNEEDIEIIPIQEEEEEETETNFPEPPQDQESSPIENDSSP
As to the kind of experiment: SB cell-ELISA, negative control, concentration not clear. (In general: In an ELISA, binding on a coated surface is turned into a signal by an enzyme label.)

Assay [2] has as its target T1, human CD20 antigen. Put plainly: Raji cell-ELISA, negative control, concentration not clear.
Assay [3] addresses T1, human CD20 antigen. Put plainly: CD20/CHO cell-ELISA, negative control, concentration not clear.
Assay [4] addresses T1, human CD20 antigen. Put plainly: SB cell-ELISA, antibody at 3 ng/ml.
Assay [5] deals with T1, human CD20 antigen. Put plainly: Raji cell-ELISA, antibody at 3 ng/ml.
For assay [6], the target named is T1, human CD20 antigen. Put plainly: CD20/CHO cell-ELISA, antibody at 3 ng/ml.
Assay [7] addresses T1, human CD20 antigen. Put plainly: CD20/CHO cell-ELISA, antibody at 10 ng/ml.
In assay [8] the target is T1, human CD20 antigen. Put plainly: CD20/CHO cell-ELISA, antibody at 32 ng/ml.
For assay [9], the target named is T1, human CD20 antigen. Put plainly: CD20/CHO cell-ELISA, antibody at 100 ng/ml.
Assay [10] concerns the target T1, human CD20 antigen. As to the kind of experiment: SB cell-ELISA, antibody at 10 ng/ml. An excerpt: (§1) Several murine anti-CD20 monoclonal antibodies and 2B8 were reacted by using 96-well plates to which the SB cells, Raji cells, CD20/CHO cells and CD20 CHO parent cell line were adhered.
In assay [11] the target is T1, human CD20 antigen. Put plainly: SB cell-ELISA, antibody at 32 ng/ml.
Text: as §1

Assay [12] has as its target T1, human CD20 antigen. Put plainly: SB cell-ELISA, antibody at 100 ng/ml.
Text: as §1

The target in assay [13] is T1, human CD20 antigen. Put plainly: SB cell-ELISA, antibody at 320 ng/ml.
Text: as §1

The target in assay [14] is T1, human CD20 antigen. Put plainly: Raji cell-ELISA, antibody at 10 ng/ml.
Text: as §1

Assay [15] addresses T1, human CD20 antigen. Put plainly: Raji cell-ELISA, antibody at 32 ng/ml.
Text: as §1

Assay [16] addresses T1, human CD20 antigen. Put plainly: SB cell-ELISA, antibody at 1000 ng/ml.
Text: as §1

Assay [17] concerns the target T1, human CD20 antigen. As to the kind of experiment: Raji cell-ELISA, antibody at 100 ng/ml.
Text: as §1

The target of assay [18] is T1, human CD20 antigen. Put plainly: Raji cell-ELISA, antibody at 320 ng/ml.
Text: as §1

For assay [19], the target named is T1, human CD20 antigen. As to the kind of experiment: Raji cell-ELISA, antibody at 1000 ng/ml.
Text: as §1

Assay [20] concerns the target T1, human CD20 antigen. As to the kind of experiment: CD20/CHO cell-ELISA, antibody at 320 ng/ml.
Text: as §1

The target of assay [21] is T1, human CD20 antigen. Put plainly: CD20/CHO cell-ELISA, antibody at 1000 ng/ml.
Text: as §1

The target in assay [22] is T1, human CD20 antigen. As to the kind of experiment: CD20/CHO cell-ELISA, antibody at 3 ng/ml.
Text: as §1
The source holds these as a separate data set.

In assay [23] the target is T1, human CD20 antigen. As to the kind of experiment: CD20/CHO cell-ELISA, antibody at 10 ng/ml.
Text: as §1
This is another data set of the same source.

For assay [24], the target named is T1, human CD20 antigen. Put plainly: CD20/CHO cell-ELISA, antibody at 32 ng/ml.
Text: as §1
The source holds these as a separate data set.

The target of assay [25] is T1, human CD20 antigen. Put plainly: CD20/CHO cell-ELISA, antibody at 100 ng/ml.
Text: as §1
The source holds these as a separate data set.

On to NC, for which the figures for the A492 with human CD20 antigen [1], with human CD20 antigen [2] and in the assay with human CD20 antigen [3] were 0.028 A492, 0.035 A492 and 0.07 A492, respectively.

For the molecule 2B8 (antibody), the A492 is 0.053 A492 with human CD20 antigen [4]; 0.046 A492 with human CD20 antigen [5]; 0.089 A492 with human CD20 antigen [6]; 0.174 A492 with human CD20 antigen [7]; 0.561 A492 with human CD20 antigen [8]; 1.09 A492 in the assay with human CD20 antigen [9]. The A492 turned out to be 0.037 A492 in the assay with human CD20 antigen [10]; 0.038 A492 in the assay with human CD20 antigen [11]; 0.045 A492 with human CD20 antigen [12]; 0.091 A492 with human CD20 antigen [13]; 0.034 A492 with human CD20 antigen [14]; 0.038 A492 with human CD20 antigen [15]. Moreover, the A492 with human CD20 antigen [16] worked out at 0.337 A492; in the assay with human CD20 antigen [17], 0.055 A492; with human CD20 antigen [18] it was 0.121 A492; in the assay with human CD20 antigen [19] it was 0.329 A492; with human CD20 antigen [20], 1.66 A492; in the assay with human CD20 antigen [21], 2.29 A492.

B1: murine anti-CD20 monoclonal antibody 1K1402 (antibody, V domains shown)
VH: QVQLQQPGAELVKPGASVKMSCKASGFTFTSYNMHWVKQTPGQGLEWIGGIYPGNGDTSYNQKFKGKATLTADKSSSTAYMQLSSLTSEDSAVYYCARFYYYGSMGAMDYWGQGTSVTVSS
VL: QIVLSQSPAILSASPGEKVTMTCRASSSVSYMHWYQQKPGSSPKPWIYATSNLASGVPARFSGSGSGTSYSLTITRVEAEDAATYYCQQWTFNPPTFGAGTKLELK
notes: Mouse monoclonal antibody from a hybridoma
As for B1, the A492 with human CD20 antigen [10] was determined as 0.066 A492; with human CD20 antigen [11] it was 0.095 A492; with human CD20 antigen [12], 0.152 A492; with human CD20 antigen [13] it was 0.4 A492; with human CD20 antigen [14], 0.061 A492; in the assay with human CD20 antigen [15], 0.102 A492. The A492 was determined as 0.763 A492 with human CD20 antigen [16]; 0.214 A492 with human CD20 antigen [17]; 0.525 A492 with human CD20 antigen [18]; 1.23 A492 in the assay with human CD20 antigen [19]; 0.174 A492 in the assay with human CD20 antigen [22]; 0.389 A492 in the assay with human CD20 antigen [23]. Further, the A492 in the assay with human CD20 antigen [24] was found to be 0.824 A492; with human CD20 antigen [25], 1.49 A492; with human CD20 antigen [20], 1.57 A492; with human CD20 antigen [21], 1.88 A492.

B2: murine anti-CD20 monoclonal antibody 1K1422 (antibody, V domains shown)
VH: QVQLQQPGAELVKPGASVKMSCRASGYTFTNYNMHWIKQTPGQGLEWIGAIYPGSGDTSYNRKFKGKATLTADTSSSTAYMQFSSLTSADSAVYYCARFTYYYGGTYGAMDYWGQGTSVTVSL
VL: QIVLTQSPPIMSASLGEEITLTCSASSRVSYMLWYQQKSGTSPKLLIYSTSNLASGVPSRFSGSGSGTFYSLTISSVEAEDAADYYCHQWTSNPCTFGGGTKLEIK
notes: as for B1
For B2, the A492 in the assay with human CD20 antigen [10] was found to be 0.036 A492; with human CD20 antigen [11] it was 0.039 A492; in the assay with human CD20 antigen [12], 0.071 A492; in the assay with human CD20 antigen [13], 0.147 A492; with human CD20 antigen [14], 0.046 A492; with human CD20 antigen [15] it was 0.057 A492. The A492 is 0.403 A492 with human CD20 antigen [16]; 0.121 A492 with human CD20 antigen [17]; 0.277 A492 with human CD20 antigen [18]; 0.748 A492 with human CD20 antigen [19]; 0.068 A492 with human CD20 antigen [22]; 0.105 A492 with human CD20 antigen [23]. The A492 with human CD20 antigen [24] was 0.238 A492; with human CD20 antigen [25], 0.842 A492; with human CD20 antigen [20], 1.33 A492; with human CD20 antigen [21], 2.23 A492.
